Measured values published in patent US20190248902A1 (published 2019).

Assays:
Mouse ASGR-1 = biological target: T1, Mouse ASGR-1 (mouse, UniProt P34927 1-284); assay: FACS on transfected HEK 293 cells or membrane preps on beads; Y = signal at least 2x irrelevant IgG
T1 construct: Expressed on HEK 293 cells or as membrane prep on beads; cDNA GenBank BC022106.1; also called muASGR-1; mASGR-1
T1 sequence: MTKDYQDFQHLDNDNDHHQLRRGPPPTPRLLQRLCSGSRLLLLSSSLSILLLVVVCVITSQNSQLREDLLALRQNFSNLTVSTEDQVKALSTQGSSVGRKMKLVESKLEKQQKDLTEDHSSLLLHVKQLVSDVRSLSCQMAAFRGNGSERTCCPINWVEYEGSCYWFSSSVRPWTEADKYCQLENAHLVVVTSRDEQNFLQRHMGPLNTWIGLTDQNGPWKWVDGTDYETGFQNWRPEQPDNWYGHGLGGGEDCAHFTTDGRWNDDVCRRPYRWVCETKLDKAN
Outline: (§1)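 Antibodies at normalized concentrations bound 1 h at 4° C to HEK 293 cells expressing each antigen, then Alexa Fluor 647 anti-Fc plus 7-AAD 15 min at 4° C, flow cytometry; empty-vector cells as negative. Alternatively, species ASGR-1 membrane preps on streptavidin beads, antibody 1 h RT, Alexa Fluor 488 anti-Fc; FACS buffer with 1 mM CaCl2 throughout.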

Human ASGR-2 = biological target: T2, Human ASGR-2 (human, UniProt P07307 1-311); assay: FACS on transfected HEK 293 cells; Y = signal at least 2x irrelevant IgG
T2 construct: Expressed on HEK 293 cells; cDNA GenBank NM_080913.3; also called huASGR-2; hASGR-2
T2 sequence: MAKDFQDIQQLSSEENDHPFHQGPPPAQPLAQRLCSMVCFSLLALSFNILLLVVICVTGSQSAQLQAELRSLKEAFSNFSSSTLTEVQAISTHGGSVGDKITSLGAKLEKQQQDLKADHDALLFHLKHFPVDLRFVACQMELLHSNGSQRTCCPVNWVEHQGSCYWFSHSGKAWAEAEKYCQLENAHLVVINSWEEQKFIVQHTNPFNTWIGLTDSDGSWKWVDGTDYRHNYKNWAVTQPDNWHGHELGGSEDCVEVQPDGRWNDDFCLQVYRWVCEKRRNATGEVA
Procedure: Human ASGR-1-specific, ligand competing antibody samples were tested for binding to ASGR-1 from other species (cynomologus monkey ASGR-1, mouse ASGR-1, rat ASGR-1, dog ASGR-1, and pig ASGR-1) as well as to human ASGR-2 in FACS binding assays at normalized antibody concentrations. For cell-based assays, HEK 293 cells expressing the appropriate antigen of interest were mixed with antibody sample or controls, incubated for 1 hour at 4° C., and then washed twice. Cells with bound antibody were then incubated with Alexa Fluor® 647 IgG Fc fragment-specific detection antibody and 7-AAD viability stain for 15 minutes at 4° C., washed once and resuspended in FACS buffer. Samples were analyzed using a BD Accuri™ Flow Cytometer and an Intellicyt HyperCyt Autosampler. As a negative control, supernatants and controls were also screened against HEK 293 cells transfected with empty parental vector. […] For membrane-prep binding assays, ASGR-1 species specific membrane preps were used to coat LumAvidin® microspheres (beads) and tested for binding to selected hybridoma supernatants or controls. Briefly, ASGR-1 species specific membrane preps were incubated with streptavidin-coated LumAvidin® beads for 45 minutes in the dark at room temperature and washed twice. Beads were resuspeneded in FACS buffer containing Stabilguard®. […] Samples were analyzed using an Intellicyt iQue™ Screener Platform. […]

Dog ASGR-1 = biological target: T3, Dog ASGR-1 (dog); assay: FACS on transfected HEK 293 cells or membrane preps on beads; binding = signal at least 2x irrelevant IgG
T3 construct: Expressed on HEK 293 cells or as membrane prep on beads; cDNA GenBank XM_546579
T3 chain: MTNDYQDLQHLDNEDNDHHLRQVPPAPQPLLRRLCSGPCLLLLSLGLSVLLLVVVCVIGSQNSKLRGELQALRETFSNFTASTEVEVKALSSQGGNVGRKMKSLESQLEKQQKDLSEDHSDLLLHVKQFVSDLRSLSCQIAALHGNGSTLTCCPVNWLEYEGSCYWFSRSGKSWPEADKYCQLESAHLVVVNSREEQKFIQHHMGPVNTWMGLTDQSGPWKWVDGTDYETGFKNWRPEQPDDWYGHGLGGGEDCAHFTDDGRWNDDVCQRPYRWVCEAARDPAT
Outline: as §1

Pig ASGR-1 = biological target: T4, Pig ASGR-1 (pig); assay: as above
T4 construct: Expressed on HEK 293 cells or as membrane prep on beads; cDNA GenBank NM_001244458
T4 chain: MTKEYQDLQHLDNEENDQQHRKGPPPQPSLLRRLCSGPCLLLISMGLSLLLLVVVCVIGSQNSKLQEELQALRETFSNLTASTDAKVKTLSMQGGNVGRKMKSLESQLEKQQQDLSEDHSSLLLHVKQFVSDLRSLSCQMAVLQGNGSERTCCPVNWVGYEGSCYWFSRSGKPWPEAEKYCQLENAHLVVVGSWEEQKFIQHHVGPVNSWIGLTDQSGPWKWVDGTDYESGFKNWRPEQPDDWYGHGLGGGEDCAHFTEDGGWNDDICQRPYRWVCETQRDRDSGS
Outline: as §1

Rat ASGR-1 = biological target: T5, Rat ASGR-1 (rat, UniProt P02706 1-284); assay: as above
T5 construct: Expressed on HEK 293 cells or as membrane prep on beads; cDNA GenBank NM_012503
T5 sequence: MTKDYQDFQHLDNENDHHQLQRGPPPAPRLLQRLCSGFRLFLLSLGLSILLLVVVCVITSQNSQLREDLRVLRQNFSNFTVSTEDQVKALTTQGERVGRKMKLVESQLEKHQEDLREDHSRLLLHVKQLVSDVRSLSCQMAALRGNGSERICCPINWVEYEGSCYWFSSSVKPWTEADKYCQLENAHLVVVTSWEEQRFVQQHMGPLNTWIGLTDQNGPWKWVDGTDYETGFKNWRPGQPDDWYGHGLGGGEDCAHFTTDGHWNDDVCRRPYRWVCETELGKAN
Outline: as §1

binding result (Mouse ASGR-1) | binding result (Human ASGR-2) | binding result (Dog ASGR-1) | binding result (Pig ASGR-1) | binding result (Rat ASGR-1) | Binder
binds | – | – | – | – | 12D2 (antibody, V domains shown, Tested as hybridoma supernatant at normalized concentration) VH: EVQLVESGGGLVKPGGSLRLSCAASGFTFSSYSMNWVRQAPGKGLEWVSSISSSSSYIYYADSVKGRFTISRDNAKNSLYLQMNSLRAEDTAVYYCARLGDYWGQGTLVAVSS VL: not shown
– | binds | no binding | no binding | – | 6G7 (antibody, V domains shown, Tested as hybridoma supernatant at normalized concentration) VH: QVQLVESGGGVVQPGRSLRLSCAASGFTFSSYGMHWVRQTPGKGLEWVAIISYVGKNKYYADSVKGRFTISRDNSKNTLYLQMNSLRAEDTAVYYCARRGNSYGGYGMDVWGQGTTVTVSS VL: DIQMTQSPSSRSASVGDRVTITCQASQDISNYLNWCQQKPGKALKLLIYDASTLETGVPSRFSGSGSGTDFTFTISSVQPEDIATYYCQQYDNVPITFGQGTRLEIK
binds | – | no binding | – | – | 4H6 (antibody, V domains shown, Tested as hybridoma supernatant at normalized concentration) VH: QVQLVQSGAEVKKPGASVKVSCKASGYTFTDYYLHWVRQAPGQGLEWMGWIHPNSGGTNYAQKFQGRVTMTRDTSISTAYMGLSSLRSDDTAVYYCARDGTSSFDYWGQGTLVTVSS VL: DIQMTQSPSSVSASVGDRVTITCRASQGISRWLAWYQQKPGKAPKLLIYGASSLQSGVPSRFSGSGSGTDFTLTISSLQPEDFAIYYCQQANSFPFTFGPGTKVDIK
binds | – | – | – | – | 72G9 (antibody, V domains shown, Tested as hybridoma supernatant at normalized concentration) VH: EVQLVESGGGLVKPGGSLRLSCAASGFTFSSYSMNWVRQAPGKGLEWVSSISGSSSYIYYADSVKGRFTISRDNAKNSLYLQMNSLRAEDTAVYFCARGGSRGFDPWGQGTLVTVSS VL: DIQMTQSPSSLSASVGDRVTITCRASQSITSYLNWYQQKPGKAPKLLIYTASSLQSGVPSRFSGSGSGTDFTLTISSLQPEDFATYYCQQSHSFPFTFGPGTKVDIK
– | – | no binding | – | no binding | 56E5 (antibody, V domains shown, Tested as hybridoma supernatant at normalized concentration) VH: QVQLVQSGAEVKKPGASVKVSCQASGYTFTGYHMHWVRQAPGQGLEWMGWINPNNNATNYAQKFQGRVTMTRDTSISTAYMELRRLRSDDTAVYHCARDGTSSFDYWGQGTLVTVSS VL: DIQMTQSPSSVSASVGDRVTITCRASQGIRKWLAWYQQKPGKAPKLLIYAASSLQSGVPSRFSGSGSGTDFTLTISSLQPEDFATYYCQQANSFPFTFGPGTKVDIK
– | – | no binding | no binding | no binding | 22G5 (antibody, V domains shown, Tested as hybridoma supernatant at normalized concentration) VH: EVQLLESGGGLVQPGGSLRLSCAASGFTFSSYAMNWVRQAPGMGLEWVSVISRSGGYTYYADSVKGRFTISRDNSKNTLYLQMNSLRAEDTAVYYCASRLAVAGSEAFDIWGQGTLVTVSS VL: DIQMTQSPSSLSASVGDRVTITCRASQNISSYLNWYQQKQGKAPKLLIYAASSLQNGVPSRFSGRGSGTDFTLTISSLQPEDFATYYCQQSYRTPLFTFGPGTKVDFK
– | – | – | no binding | no binding | 193E7 (antibody, V domains shown, Tested as hybridoma supernatant at normalized concentration) VH: QVQLQQWGAGLLKPSETLSLTCAVYGGSFSGYFWTWIRQPPGKGLEWIGEINHSGSTNYNPSLKSRVTISVDTSKNQFSLKLSSVTAADTAVYYCARDYGADYWGQGTLVAVSA VL: DIQMTQSPSSLSASVGDRVTITCRASQGIRNDLGWYQQKPGKAPKRLIYSASSLQRGVPSRFSGSGSGTEFTLTISSLQPEDFATYYCLQHKRYPLTFGGGTKVEIK
– | – | no binding | no binding | – | 5E5 (antibody, V domains shown, Tested as hybridoma supernatant at normalized concentration) VH: QVQLVESGGGVVQPGRSLRLSCAASGFTFSNYVMHWVRQAPGKGLEWVAVIWYDGSNKYYADSVKGRFTISRDNSKNTLYLQMNSLRAEDTAVYYCTREVYSSGWYDYGMDVWGQGTTVTVSS VL: DIQMTQSPSSLSASVGDRVTITCRASQGIRNDLGWYQQKPGKAPKRLIYAASSLQSGVPSRFSGSGSGTEFTLTISSLQPEDFATYYCLQHYSYPRTFGQGTKVEVK
– | – | – | no binding | no binding | 54E9 (antibody, V domains shown, Tested as hybridoma supernatant at normalized concentration) VH: QVQLVQSGAEVKKPGASVKVSCKASGYTFNSYGISWVRLAPGQGLEWMGWISAYNGNTKNAQKLQGRVTMTTDTSTSTAYMELRSLRSDDTAVYYCARHDFWSGYYKGMDVWGQGTTVTVSS VL: not shown
binds | – | – | – | – | 184E7 (antibody, V domains shown, Tested as hybridoma supernatant at normalized concentration) VH: QVQLVQSGAEVKTPGASVKVSCRASGYTFTSYNMHWVRQVPGQGLEWMGWINPNNGGSNYTQKFQGRVTMTRDTSISTAYMELSRLRSDDTAVYYCARKFGDWGQGTLVTVSS VL: DIQMTQSPSSRSASIGERVTITCRASQGISNYLAWIQQKPGTAPKSLIYAASSLQSGVSSRFSGSGFGTDFTITISSVQREDFATYYCQQYNGYPFTFGHGTKVDIK
binds | – | – | – | – | 4B1 (antibody, V domains shown, Tested as hybridoma supernatant at normalized concentration) VH: QVQLQESGPGLVKPSETLSLTCSVSGDSISSYSWSWIRQPAGKGLEWIGRIYTSGSTNYIPSLKSRITMSVDTSKKQFSLKLSSVTAADTAVYYCARDLKSSGCLFFDYWGQGTLVTVSS VL: DIQMTQSPSSLSASVGDRVTITCRASHTIRTYLNWYQQKPGKAPKLLIYAASSLQSGVPSRINGSGSGTDFTLTITNLQPEDFATYYCQQSYNISFTFGPGTKVDIK
